Assay results as given in the RNAGym collection of RNA variant scans (doi:10.7554/elife.80360).

B1: HDV Ribozyme (parent)
chain: GGCCGGCAUGGUCCCAGCCUCCUCGCUGGCGCCGGCUGGGCAACAUUCCGAGGGGACCGUCCCCUCGGUAAUGGCGAAUGGGACCCA

Variants of: B1
Test: self-cleavage, relative activity (ratio to wild type); higher = more cleavage; co-transcriptional

Q: For A45U C58U, which self-cleavage is on record?
A: 0.849

Q: For A45U C58G, which self-cleavage is on record?
A: 0.712

Q: With U46A U72A as the variant, how does the self-cleavage read?
A: 0.615

Q: Which self-cleavage does the source give for U46A U72G here?
A: 0.65

Q: With U46A U72C as the variant, how does the self-cleavage read?
A: 0.655

Q: With U46A G76A as the variant, how does the self-cleavage read?
A: 0.831

Q: With U46G G74A as the variant, how does the self-cleavage read?
A: 0.365

Q: For U46A A51U, which self-cleavage is on record?
A: 0.536

Q: Which self-cleavage does the source give for U46A A51C here?
A: 0.831

Q: With U46A A51G as the variant, how does the self-cleavage read?
A: 0.739

Q: Which self-cleavage does the source give for A45G G55C here?
A: 1.04

Q: With A45G G55U as the variant, how does the self-cleavage read?
A: 0.888

Q: Which self-cleavage does the source give for A45G G55A here?
A: 1.08

Q: For U46C G67C, which self-cleavage is on record?
A: 0.469

Q: For U46C G67U, which self-cleavage is on record?
A: 0.831

Q: Which self-cleavage does the source give for U46C G73C here?
A: 0.525

Q: With U46C C61G as the variant, how does the self-cleavage read?
A: 0.734

Q: For U46C C61U, which self-cleavage is on record?
A: 0.796

Q: Which self-cleavage does the source give for U46G U65G here?
A: 0.712

Q: For U46G U65A, which self-cleavage is on record?
A: 0.582

Q: For U46G G59U, which self-cleavage is on record?
A: 0.902

Q: With A45G A78C as the variant, how does the self-cleavage read?
A: 0.237

Q: For A45G A78G, which self-cleavage is on record?
A: 0.617

Q: Which self-cleavage does the source give for A45U A77U here?
A: 0.322

Q: With A45U A77G as the variant, how does the self-cleavage read?
A: 0.609

Q: Which self-cleavage does the source give for A45U A77C here?
A: 0.155

Q: For A45U U79A, which self-cleavage is on record?
A: 0.192

Q: With A45U U79C as the variant, how does the self-cleavage read?
A: 0.26

Q: Which self-cleavage does the source give for A45G C62G here?
A: 0.587

Q: Which self-cleavage does the source give for U46A G81A here?
A: 0.271

Q: Which self-cleavage does the source give for U46C G80C here?
A: 0.399

Q: Which self-cleavage does the source give for U46C G80U here?
A: 0.0903

Q: For U46C C86A, which self-cleavage is on record?
A: 0.849

Q: With U46A A87U as the variant, how does the self-cleavage read?
A: 0.76

Q: For U46A A87G, which self-cleavage is on record?
A: 0.712

Q: With A45G A51C as the variant, how does the self-cleavage read?
A: 0.987

Q: Which self-cleavage does the source give for U46A G59U here?
A: 0.674

Q: With U46A G59C as the variant, how does the self-cleavage read?
A: 0.57

Q: With A45G U72G as the variant, how does the self-cleavage read?
A: 0.68

Q: Which self-cleavage does the source give for U46G C84U here?
A: 0.287

Q: For U46G C84G, which self-cleavage is on record?
A: 0.185

Q: With U46C G74U as the variant, how does the self-cleavage read?
A: 0.554

Q: For U46C G74A, which self-cleavage is on record?
A: 0.48

Q: For U46A G67C, which self-cleavage is on record?
A: 0.76

Q: For U46C C75G, which self-cleavage is on record?
A: 0.469

Q: For U46A C61G, which self-cleavage is on record?
A: 0.808

Q: For U46C U72G, which self-cleavage is on record?
A: 0.475

Q: With U46C U72C as the variant, how does the self-cleavage read?
A: 0.684

Q: Which self-cleavage does the source give for U46C U72A here?
A: 0.504

Q: Which self-cleavage does the source give for A45G G67C here?
A: 0.54

Q: Which self-cleavage does the source give for U46C G82A here?
A: 0.224

Q: For U46C G82C, which self-cleavage is on record?
A: 0.243

Q: Which self-cleavage does the source give for A45U C63A here?
A: 0.784

Q: Which self-cleavage does the source give for A45U C63U here?
A: 0.856

Q: For U46G G73U, which self-cleavage is on record?
A: 0.514

Q: Which self-cleavage does the source give for A45U C64A here?
A: 0.882

Q: Which self-cleavage does the source give for A45U C64U here?
A: 0.764

Q: With U46G C58G as the variant, how does the self-cleavage read?
A: 0.89

Q: For U46G A56C, which self-cleavage is on record?
A: 0.959

Q: For U46C A56U, which self-cleavage is on record?
A: 1.09

Q: Which self-cleavage does the source give for A45C U72C here?
A: 0.481

Q: For U46C U69C, which self-cleavage is on record?
A: 1.12

Q: Which self-cleavage does the source give for U47A A51C here?
A: 1.13

Q: With U47A A51G as the variant, how does the self-cleavage read?
A: 0.902

Q: For U47A A51U, which self-cleavage is on record?
A: 1.03

Q: Which self-cleavage does the source give for U46G C64G here?
A: 0.525

Q: Which self-cleavage does the source give for U46G C64A here?
A: 0.0831

Q: For U46G C64U, which self-cleavage is on record?
A: 0.776

Q: For A45U A83U, which self-cleavage is on record?
A: 0.128

Q: Which self-cleavage does the source give for A45U A83C here?
A: 0.0875

Q: For U46C C84A, which self-cleavage is on record?
A: 0.723

Q: With U46C C84G as the variant, how does the self-cleavage read?
A: 0.237

Q: Which self-cleavage does the source give for U46G U79A here?
A: 0.356

Q: Which self-cleavage does the source give for U46G C57U here?
A: 0.86

Q: Which self-cleavage does the source give for U46G C57A here?
A: 0.635

Q: Which self-cleavage does the source give for U46A A70G here?
A: 1.01

Q: With U46A A70U as the variant, how does the self-cleavage read?
A: 0.587

Q: Which self-cleavage does the source give for U46A A70C here?
A: 0.831

Q: For U46G G53C, which self-cleavage is on record?
A: 0.465

Q: For U46C C49U, which self-cleavage is on record?
A: 0.73

Q: For U46C C49G, which self-cleavage is on record?
A: 0.554

Q: Which self-cleavage does the source give for U46C C64G here?
A: 0.875

Q: With U46C C64U as the variant, how does the self-cleavage read?
A: 0.725

Q: For A45U G50C, which self-cleavage is on record?
A: 0.767
